Experimental data published in patent publication US20090118184A1 (UNIVERSITY OF ROCHESTER, published 2009).

Experiments:
Assay in all cases: cell-based or functional assay
[1] = biological target: T1, factor VIIIa A1/A3C1C2 dimer, wild type (human, UniProt P00451 20-391; P00451 1709-2351)
T1 sequence 1: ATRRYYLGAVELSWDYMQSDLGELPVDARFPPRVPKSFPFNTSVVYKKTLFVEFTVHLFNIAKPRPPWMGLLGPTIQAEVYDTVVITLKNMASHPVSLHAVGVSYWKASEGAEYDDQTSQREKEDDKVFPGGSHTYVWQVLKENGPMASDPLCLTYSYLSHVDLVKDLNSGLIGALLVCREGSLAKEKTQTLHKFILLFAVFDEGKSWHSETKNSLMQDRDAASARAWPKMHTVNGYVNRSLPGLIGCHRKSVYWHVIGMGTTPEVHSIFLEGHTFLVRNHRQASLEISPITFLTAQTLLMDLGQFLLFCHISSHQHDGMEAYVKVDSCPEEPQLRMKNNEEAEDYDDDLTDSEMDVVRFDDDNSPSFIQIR
T1 sequence 2: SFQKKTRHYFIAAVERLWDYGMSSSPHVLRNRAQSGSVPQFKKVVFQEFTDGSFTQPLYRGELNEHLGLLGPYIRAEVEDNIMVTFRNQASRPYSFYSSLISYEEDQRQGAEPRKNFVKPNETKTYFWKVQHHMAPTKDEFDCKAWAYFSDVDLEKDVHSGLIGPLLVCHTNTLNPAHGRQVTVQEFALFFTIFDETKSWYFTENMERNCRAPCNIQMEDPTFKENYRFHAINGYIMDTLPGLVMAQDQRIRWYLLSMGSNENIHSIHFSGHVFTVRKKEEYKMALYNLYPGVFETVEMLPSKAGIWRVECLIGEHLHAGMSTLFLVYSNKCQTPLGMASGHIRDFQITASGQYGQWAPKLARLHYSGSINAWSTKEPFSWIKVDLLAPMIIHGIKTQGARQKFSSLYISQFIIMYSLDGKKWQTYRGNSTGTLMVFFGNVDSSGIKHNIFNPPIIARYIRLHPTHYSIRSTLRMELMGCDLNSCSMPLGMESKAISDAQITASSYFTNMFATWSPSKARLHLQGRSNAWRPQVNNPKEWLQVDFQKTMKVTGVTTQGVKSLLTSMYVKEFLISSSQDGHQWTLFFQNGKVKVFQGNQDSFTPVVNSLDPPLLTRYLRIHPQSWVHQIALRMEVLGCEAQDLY

[2] = biological target: T2, factor VIIIa A1/A3C1C2 dimer, Glu1984Ala (human, UniProt P00451 20-391; P00451 1709-2351)
T2 sequence 1: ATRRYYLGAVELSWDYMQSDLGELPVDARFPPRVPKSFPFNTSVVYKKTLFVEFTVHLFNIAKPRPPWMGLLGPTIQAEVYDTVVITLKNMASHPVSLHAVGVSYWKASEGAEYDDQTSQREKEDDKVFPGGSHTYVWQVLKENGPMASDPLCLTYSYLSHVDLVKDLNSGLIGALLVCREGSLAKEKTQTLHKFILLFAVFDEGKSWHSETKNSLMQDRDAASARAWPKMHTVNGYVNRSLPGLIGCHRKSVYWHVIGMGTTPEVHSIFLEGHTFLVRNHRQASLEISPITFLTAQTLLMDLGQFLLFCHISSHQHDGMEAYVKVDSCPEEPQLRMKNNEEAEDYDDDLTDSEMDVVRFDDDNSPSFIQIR
T2 sequence 2: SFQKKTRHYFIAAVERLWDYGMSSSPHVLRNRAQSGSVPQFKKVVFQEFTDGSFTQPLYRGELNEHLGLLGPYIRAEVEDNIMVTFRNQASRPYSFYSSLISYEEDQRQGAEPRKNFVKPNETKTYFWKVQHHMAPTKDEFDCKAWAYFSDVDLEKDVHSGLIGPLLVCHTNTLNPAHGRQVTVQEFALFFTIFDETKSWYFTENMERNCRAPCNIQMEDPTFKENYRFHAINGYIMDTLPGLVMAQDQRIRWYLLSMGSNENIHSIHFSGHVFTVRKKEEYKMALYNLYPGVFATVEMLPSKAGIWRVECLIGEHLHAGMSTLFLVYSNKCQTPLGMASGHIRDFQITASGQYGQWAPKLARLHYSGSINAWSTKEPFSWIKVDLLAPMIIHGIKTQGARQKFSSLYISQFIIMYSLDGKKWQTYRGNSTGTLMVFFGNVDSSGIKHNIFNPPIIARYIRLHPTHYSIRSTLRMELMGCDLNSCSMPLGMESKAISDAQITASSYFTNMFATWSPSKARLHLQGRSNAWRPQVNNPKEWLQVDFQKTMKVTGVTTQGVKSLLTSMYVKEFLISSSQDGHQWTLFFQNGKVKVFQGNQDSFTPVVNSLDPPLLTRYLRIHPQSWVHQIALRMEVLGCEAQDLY

[3] = biological target: T3, factor VIIIa A1/A3C1C2 dimer, Glu1984Val (human, UniProt P00451 20-391; P00451 1709-2351)
T3 sequence 1: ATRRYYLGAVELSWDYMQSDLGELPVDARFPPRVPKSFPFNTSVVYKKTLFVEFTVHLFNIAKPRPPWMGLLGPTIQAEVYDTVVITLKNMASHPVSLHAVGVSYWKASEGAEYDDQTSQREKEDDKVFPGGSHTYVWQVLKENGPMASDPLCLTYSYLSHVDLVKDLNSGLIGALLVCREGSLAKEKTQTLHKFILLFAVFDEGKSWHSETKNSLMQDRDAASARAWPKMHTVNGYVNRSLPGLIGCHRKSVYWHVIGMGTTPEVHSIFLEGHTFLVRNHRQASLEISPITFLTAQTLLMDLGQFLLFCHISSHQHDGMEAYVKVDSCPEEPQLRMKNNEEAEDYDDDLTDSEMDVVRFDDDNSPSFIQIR
T3 sequence 2: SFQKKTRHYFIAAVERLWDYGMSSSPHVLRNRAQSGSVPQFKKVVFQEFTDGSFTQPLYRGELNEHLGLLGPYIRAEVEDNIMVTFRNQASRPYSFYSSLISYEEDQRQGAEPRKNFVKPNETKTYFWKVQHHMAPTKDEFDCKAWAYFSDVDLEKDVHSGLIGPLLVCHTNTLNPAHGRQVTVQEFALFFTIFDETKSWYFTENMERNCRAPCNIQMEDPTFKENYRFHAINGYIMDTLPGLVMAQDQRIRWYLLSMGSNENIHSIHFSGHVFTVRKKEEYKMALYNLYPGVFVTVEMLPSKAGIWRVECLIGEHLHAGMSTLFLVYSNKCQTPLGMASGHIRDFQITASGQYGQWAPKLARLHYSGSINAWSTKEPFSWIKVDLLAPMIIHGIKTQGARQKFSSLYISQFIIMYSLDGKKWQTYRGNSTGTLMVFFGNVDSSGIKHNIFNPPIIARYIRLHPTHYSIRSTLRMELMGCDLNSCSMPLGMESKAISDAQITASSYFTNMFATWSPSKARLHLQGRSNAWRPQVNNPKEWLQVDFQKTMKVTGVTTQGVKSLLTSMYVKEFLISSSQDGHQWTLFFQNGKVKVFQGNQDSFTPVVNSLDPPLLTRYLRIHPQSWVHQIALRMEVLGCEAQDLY

[4] = biological target: T4, factor VIIIa A1/A3C1C2 dimer, E113A and E1984V (human, UniProt P00451 20-391; P00451 1709-2351)
T4 chain 1: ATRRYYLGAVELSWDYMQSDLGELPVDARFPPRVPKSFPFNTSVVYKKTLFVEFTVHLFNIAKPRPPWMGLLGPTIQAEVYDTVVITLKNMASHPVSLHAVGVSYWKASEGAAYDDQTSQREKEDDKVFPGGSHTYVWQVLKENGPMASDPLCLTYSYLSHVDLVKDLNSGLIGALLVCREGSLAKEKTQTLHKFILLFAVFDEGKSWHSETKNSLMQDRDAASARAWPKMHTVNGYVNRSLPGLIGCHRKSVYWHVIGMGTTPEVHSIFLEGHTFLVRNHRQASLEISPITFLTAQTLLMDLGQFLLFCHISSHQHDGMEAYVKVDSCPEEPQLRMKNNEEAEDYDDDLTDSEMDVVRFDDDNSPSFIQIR
T4 chain 2: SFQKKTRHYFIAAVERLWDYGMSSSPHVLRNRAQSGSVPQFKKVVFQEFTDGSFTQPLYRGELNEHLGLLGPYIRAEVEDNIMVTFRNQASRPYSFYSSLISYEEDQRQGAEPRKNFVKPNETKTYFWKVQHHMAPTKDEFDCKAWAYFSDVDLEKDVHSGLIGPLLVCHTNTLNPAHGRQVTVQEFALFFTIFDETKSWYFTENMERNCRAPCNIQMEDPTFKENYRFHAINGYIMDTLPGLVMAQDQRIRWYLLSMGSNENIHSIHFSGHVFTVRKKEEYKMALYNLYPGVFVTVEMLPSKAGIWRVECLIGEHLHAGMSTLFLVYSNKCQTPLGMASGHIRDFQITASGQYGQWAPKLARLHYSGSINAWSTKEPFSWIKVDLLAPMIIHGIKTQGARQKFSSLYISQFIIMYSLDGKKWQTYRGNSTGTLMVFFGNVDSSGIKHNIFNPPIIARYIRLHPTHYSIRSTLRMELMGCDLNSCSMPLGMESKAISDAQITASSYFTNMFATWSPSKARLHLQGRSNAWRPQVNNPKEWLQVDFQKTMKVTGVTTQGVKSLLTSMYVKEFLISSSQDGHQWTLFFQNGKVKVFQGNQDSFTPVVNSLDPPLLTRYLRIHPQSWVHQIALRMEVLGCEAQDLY

B1: factor VIIIa A2 subunit, wild type (other)
chain: SVAKKHPKTWVHYIAAEEEDWDYAPLVLAPDDRSYKSQYLNNGPQRIGRKYKKVRFMAYTDETFKTREAIQHESGILGPLLYGEVGDTLLIIFKNQASRPYNIYPHGITDVRPLYSRRLPKGVKHLKDFPILPGEIFKYKWTVTVEDGPTKSDPRCLTRYYSSFVNMERDLASGLIGPLLICYKESVDQRGNQIMSDKRNVILFSVFDENRSWYLTENIQRFLPNPAGVQLEDPEFQASNIMHSINGYVFDSLQLSVCLHEVAYWYILSIGAQTDFLSVFFSGYTFKHKMVYEDTLTLFPFSGETVFMSMENPGLWILGCHNSDFRNRGMTALLKVSSCDKNTGDYYEDSYEDISAYLLSKNNAIEPR
How did the “Factor VIIIa Decay relative to the WT value, Factor IXa absent” value [1] turn out when B1 was run?
Its value is 1 relative to WT.

And the “Factor VIIIa Decay relative to the WT value, Factor IXa present” value [1]?
Its value is 1 relative to WT.

And the “Factor VIIIa Decay, Factor IXa absent” value [1]?
The value was 0.0836 min⁻¹.

And the “Factor VIIIa Decay, Factor IXa present” value [1]?
The value was 0.0154 min⁻¹.

And the “Factor VIIIa Decay relative to the WT value, Factor IXa absent” value [2]?
The value was 0.29 relative to WT.

And the “Factor VIIIa Decay relative to the WT value, Factor IXa present” value [2]?
The value was 0.18 relative to WT.

What about the “Factor VIIIa Decay, Factor IXa absent” value [2] of the same binder?
Its value is 0.0241 min⁻¹.

And the “Factor VIIIa Decay, Factor IXa present” value [2]?
Its value is 0.0027 min⁻¹.

What about the “Factor VIIIa Decay relative to the WT value, Factor IXa absent” value [3] of the same binder?
The value was 0.26 relative to WT.

And the “Factor VIIIa Decay relative to the WT value, Factor IXa present” value [3]?
The value was 0.13 relative to WT.

What about the “Factor VIIIa Decay, Factor IXa absent” value [3] of the same binder?
The value was 0.0217 min⁻¹.

What about the “Factor VIIIa Decay, Factor IXa present” value [3] of the same binder?
Its value is 0.0019 min⁻¹.

And the “Decay rate relative to wild type, Factor VIIIa (1.5 nM, factor IXa absent)” value [4]?
Its value is 0.4 relative to wild type.

And the “Decay rate, Factor VIIIa (1.5 nM factor VIIIa, factor IXa absent)” value [4]?
Its value is 0.0567 min⁻¹.
